According to patent CN111363043A (FUZHOU MAIXIN BIOTECHNOLOGY DEV CO LTD, dated 2020):

Target: T1, CD20蛋白 (UniProt P11836, 297 amino acids) (human, UniProt P11836 1-297)
T1 construct: whole, on cells; Endogenous CD20 in formalin-fixed paraffin tissue sections (B-cell lymphoma, tonsil, appendix) detected by IHC. 'Human' is stated for CD20 in the abstract; The species of the tissues is not explicitly stated
T1 sequence (looked up): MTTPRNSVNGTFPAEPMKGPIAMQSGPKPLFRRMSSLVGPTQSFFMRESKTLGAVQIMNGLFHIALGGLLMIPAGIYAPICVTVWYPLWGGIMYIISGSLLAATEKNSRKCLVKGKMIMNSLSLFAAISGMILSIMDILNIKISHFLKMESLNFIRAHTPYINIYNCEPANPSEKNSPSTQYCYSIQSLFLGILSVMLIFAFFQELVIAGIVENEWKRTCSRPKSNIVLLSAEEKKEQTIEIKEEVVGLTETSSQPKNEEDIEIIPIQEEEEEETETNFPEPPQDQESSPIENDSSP
Assay: IHC, appendix tissue (Fig. 5)

B1: 抗CD20蛋白单克隆抗体 (secreted by mouse hybridoma cell line AbM58020-32A8-PU, CGMCC NO.17491) (antibody, V domains shown)
VH: EVKLQESGPSLVKPGASVKISCKASGNTFTDYYMNWVRQSHGQSLEWIGRFIPSTAKTNYNHKFKDKATLTLDTSLSTAYMQLNSLTSEDSAVYYCRSDFAFWGQGTLVTVSA
VL: DILMTQSPLSLSITIGQPASISCKSSQSLLYSNGKTYLNWLLQRPGQSPKRLIYIVSKLDSGVPDRFTGSGSGTDFTLKISRVEAEDLGVYYCGQGTHYPPTFGGGTKLEIK
notes: also called AbM58020-32A8-PU的CD20; AbM58020-32A8-PU杂交瘤分泌抗体
binding result: binds
